Test results: the DeepSol protein solubility set

Test: soluble on expression in E. coli; label from the status in PepcDB or PDB records

Row | Sequence | soluble on expression in E. coli
1 | MSKKPVALIILDGFALRDETYGNAVAQANKPNFDRYWNEYPHTTLKACGEAVGLPEGQMGNAEVGHLNIGAGRIVYQSLTRINIAIREGEFDRNETFLAAMNHVKQHGTSLHLFGLLSDGGVHSHIHHLYALLRLAAKEGVKRVYIHGFLDGRDVGPQTAPQYIKELQEKIKEYGVGEIATLSGRYYSMDRDKRWDRVEKAYRAMVYGEGPTYRDPLECIEDSYKHGIYDEFVLPSVIVREDGRPVATIQDNDAIIFYNFRPDRAIQISNTFTNEDFREFDRGPKHPKHLFFVCLTHFSETVAGYVAFKPTNLDNTIGEVLSQHGLRQLRIAETEKYPHVTFFMSGGREEEFPGEDRILINSPKVPTYDLKPEMSAYEVTDALLKEIEADKYDAIILNYANPDMVGHSGKLEPTIKAVEAVDECLGKVVDAILAKGGIAIITADHGNADEVLTPDGKPQTAHTTNPVPVIVTKKGIKLRDGGILGDLAPTMLDLLGLPQPKEMTGKSLIVK | soluble
2 | QQRQRRKRKELTNLIRRFRNGAESLPDAVVVFRAEGNIVWCNRLAQHLLGFHWPEDSGQPISNLIRTPDFIKYLNKKDFSEPLEMRSPLNVERMLELRIVPYTEGEHLMVVRDVS | soluble
3 | MGSDKIHHHHHHMIELERVCKDYHTRQGMRRVLNRIDLRVKQGEKVGILGRNGAGKSTLIRMISGAELPTEGRIRRSMNVSWPLAFGGAFQGSLTGMDNLRFICRVYGADPKAAEPFVQEFSELGYYLREPVKSYSAGMRARLAFAISMAIEFDCFLIDEIVAVGDSRFHAKCHHELFEQRKDRALIIVSHDASYIRQHCDRASVLIEGKLHSFDSVEDAYTFYQESTA | not soluble
4 | IKVQIEKQLSERILLIDGGMGTMIQGYKFEEEDYRGERFNKWHCDLKGNNDLLVLSQPQIIRDIHEAYLEAGADILETNTFNATTIAMADYDMESLSEEINFEAAKLAREVADKWTEKTPNKPRYVAGVLGPTNRTCSISPDVNDPGFRNVSFDELVEAYSESTRALIRGGSDLILIETIFDTLNAKACSFAVESVFEELDITLPVMISGTITDASGRTLSGQTTEAFYNALRHVKPISFGLNCALGPDELREYVSDLSRISECYVSAHPNAGLPNAFGEYDLSPEDMAEHVAEWASSGFLNLIGGCCGTTPEHIRQMALVVEGVKPRQLPELPVACRLSGLEPLTIEKDSLFINVGERTNVTGSARF | not soluble
5 | MENTENSVDSKSIKNLEPKIIHGSESMDSGISLDNSYKMDYPEMGLCIIINNKNFHKSTGMTSRSGTDVDAANLRETFRNLKYEVRNKNDLTREEIVELMRDVSKEDHSKRSSFVCVLLSHGEEGIIFGTNGPVDLKKITNFFRGDRCRSLTGKPKLFIIQACRGTELDCGIETDSGVDDDMACHKIPVDADFLYAYSTAPGYYSWRNSKDGSWFIQSLCAMLKQYADKLEFMHILTRVNRKVATEFESFSFDATFHAKKQIPCIVSMLTKELYFYH | soluble
6 | MSLNPVNGAILSIEISHPNGFEIDENISAYHDAEYYMDRIFDSGNYDSLIVLTSIKILSQHWEIDNDMVVTSQSIRQLAIDTINSKAESGTIKNYWFKLQSLCEEFKNLSQETLSLSVFDNQVLTLNVNGHGIFRKSAFFESFANQKLNSADGKLMLIFNKFETFISRKSYHKLHEELLQLRKISANEITNLFTKHIEGKISTNEIQTILKDLEQIPGIVEIVKSLIGSSGFELIVDANSISSKELGAFHKISTVMIFKNIMETHKTLLLDLVVLFLTCETNDQIVEFVNQIRATLVQYDVMEVVFTTCLNKGEVETKNMGQVQNSIFWSSVVATHSQLKRLIESLQLNDGYEYFYNNVLPDDYLVDVVIELINNKEYFFLQKKFLTKLNQEGHHHHHH | not soluble
7 | MGAAAAPEVNMELVGHFGGTTDAVDVAGNYAYVGQGQDFLILDITNPSSPVLVSKIMTEGFVRDIKVSRNYAYVADDDNGLVIVDISNPSSPTLKGSYNIPGYTYCITVSGNYAYVADNDGLVIVDISNPSDPILKGRYAGPTGDVAVYGNYAYVADWGNGLMIVDISNPSSPVLKGSYDTAGDIYGVSISGNYAYVADGDTGLVIVDISNPSSPTLKGNYNTAGIACDVSVLGNYAYVADNDNGLVIVDISDPSSPVLKGNGSTTGYAHGIEVSGNYAYVANSNTGLVIVDISNPSSPTLKGSCDTIVRAKSIAVSGNYAYIADWDNGLVIVDISNPSSPFLKGSCDTPRSAQGVAVSGNYAYVADDDGLVIVDISNPSFPILNKSYNTGGWAQGITVSGNYAYVIDMANGIFIVDISNPSSPILEGMYDTSPIIIENYDYTGSIWSVSVSGNYAYVADEGNGLLIVDISNPSSPILKGSYDTAGLAYDVAVSGNYAYVADSKNGLAIIDISNPSSPILVGNYNTSGYAECVSISGNYAYVAVDDSLVVVDISNPSSPILKGLYAGSAGDIAVSGNYVYASEGVNGLVILKANPESAFTVADFSSNITSGYAPLSIQFNDHSQNATSWNWDFGDGYNSTNQNPIHTYSSAGTYTVNLTVINENRTASKVAKIFVLNTSLEHHHHHH | not soluble
8 | MMEIKRVLKDRLSARVCVIGAGPSGIAAIKNLQEHGITNVTVFEKNNQIGGNWVYDEQNEHSSVYETTHIISSKRWSEFEDFPMPVDYPDYPSHSQLLKYFQSYVEHFHLDRYIRFNTVVQKVHRLDDNTWHVIYEDAQGIHEACYDYLLVANGHHWDPFMPVYPGVFDGEILHSHQYKKASIFKGKRVLVVGGGNSACDVAVEISRVAPGTCISMRRGYHIFPKFIFGKPTDVAVAKIQWMPSWLRQKFISLVIRGLQGRYAKYKLMKPDCGPLEIHPTINSELLYFIRHGKIHPRSGISRFEGNTVHFTDRTQGEFDTIIFATGYQISFPFFDKSCIDFSNSTTIPLYRKMMHPEFENLYFIGLCQPQGCIWPLADYQSKIVARIIAGTLKRPDQLHRKIAKEINKPHHRFKSHMRHALEVDYHIFRKELLEMLGQKHKRLKFYPLEHHHHHH | soluble
9 | MLEKGGIRVIDEKTLEIIVREVLTNLTSDKGTQNQQKTASSSLPKLDPKRDYPLAKNKPELAKSITGKTINEITLQAVREGKVLPDDLKISPETLLAQAEIAEAAGRKQLANNFRRAAELTKVPDKRILEIYNALRPYRSTKEELLAIADELDNAYGAKVCAAFVREAAEVYERRGRLKGME | not soluble
10 | MSWKHIKIPNGDTMIFCNSFITRKSSMNIVVTHTPIVTTLEMQKAYEPLAKHNVNIFAFDFSGTGKSDGYEKDFSRNSIVKDLDSVITYIEKNYSSNIHLYGNTGIGGMFAQYYACSDNKLKSFAQFACVDYKNTTGVGYTYLTVKLLNFFFKFLPNFHITVKPPKYKGYNEVYDNEFYKIFEKKNPHIWKNSTKIINTMLECFIAKDSKIKDGVNIPTLVFKTLHDRYFKTQYFDSYYNSLKCKKKLVEINNVHNSYYIDSEKFCQEAYDWFVENQ | not soluble
11 | MAQHGALETLKDLAEKEVDDAARLLGEMRRGCQQAEEQLKMLIDYQNEYRSNLNTDMGNGIASNRWINYQQFIQTLEKAIEQHRLQLTQWTQKVDLALKSWREKKQRLQAWQTLQDRQTAAALLAENRMDQKKMDEFAQRAAMRKPE | not soluble
12 | MRREERNMDKLLISFLLSLFMVYFPPSDVVLPSQFEASTDSYVPMSSYPQETQSAKTPSPGSMHPAELIKEYSPLAQSVRQLSVKPLDEPLINRLEKALAVPVKYQSNYLRILEHHHHHH | not soluble
13 | MRLIMKPEHSTRGRVIFVGAGPGNPDLLTVRAREVLGSTANAVVDSTVGVGIRAVIAEHLEVPQAKLDAAEAEYERMCAAAKRRKPPRPDAPTAAEITEVSADASVDEVMAVLLPLLDEGDVIRLVQGNPLADSRALDEITAVTQVGADFQIVPGMSLPAAVPAFAGITLGDSYTKTTVSEDTNWDQLATAPLPLILQASKDDLLTIAMELKDRKLPASTPVTVTMNGTTRLQRSFDVTLKTMKSLVKQELDGTLVVTVGVSDRSTFSWWESRALFGWRVLVPRAKDQAGPMSSRIAAYGAIAQEVPTISVEPPRNPAQLERAIKGIVEGRYQWVVFTSVNAVKAVREKIVSFGLDSRAFAGVHIAAVGAKTAAAIREFGITPELIPPRKEHNAAGMVSVFPNYVEGLDPVGRVLLPRADIATDVLVDGLVNLGWEVDDVVAYRTVRAAPPSAEVRDMIKSGDFDAVCFTSASTVRNLVGIAGKPHARTIIACIGPMTAAEAEKQGLRVDVIPEVANVAALVDALAEHVEKLRAAGELPPPRKKRRARRKSKEGAV | not soluble
14 | MENEVVFFCRKCNHHLFAKNPMINTLKVISEMDCPNCGEEGYHNWILSHIGDSEKEKENYNWKLEHHHHHH | soluble
15 | MGSDKIHHHHHHMPPNFHADTPLAQRMRPTTLDTIIGQEHLLAVGAPLRRLVEQGHLPSIILHGEAGIGKTTIAMLLADAVGRPFHALSALNTGVKQLREVLDSKDSLSFESPVVFIDEIHRFNKAQQDALLGAVESGDITLIGATTENPSFSVNNALLSRCQVYRLEPLTPEQISAVLQRALLEDNVLKQLSIDLQAQQTISQLAHGDARKSLNLLELAIQTADTKQSPIIIDDALVARVAQTALVRYDKDGEQHYDIVSAMIKSVRGSDPDAALYWMARMLVGGEPADFIARRLVILASEDIGNANPNALLLADAALRSVQSIGMPEARIILGQVVVYLATSAKSNSTYNAINAAMSLAEKDASPVPLHLRNGVTKLMRQQGYGQDYVYPHNYPNHYYAQNYLPDKLIGTRFYEFADNQREQHSKQFVDWLKSQAASND | not soluble
16 | MAPLKRRKVSAPTGNENTPRSTRSIRHKREDPRGKMKPLATSTRTSSVNKKKKNDDDYENFYSGENTITTMKPVVFPKKPVIFEHGYGIEDDIEDEIDDEELDDEEYEESGNGNEDEVEEEVGVEEQEIENNFAYKKVKSEISCSPFLKEHSVHSVLTNNRAKTGTIDSKAGRTAYRKQKLREGTCCSQSNEATGDSTDRSSTSAGFDVFQHLQNRAVQKTMIEQLESAVRNQDVMEMGNVVKKGLENGTLSEIQIEEFCKHTTRPNFSILQFVQALRQSTEDEKESIQIAQMMMFKMQDPKDGNYTALAANVHTLTSKISKQLNAGCIVKRTLTMNHTISQADGFPTCNLTDIYNSELLIGGDAVSQLSNFYMVALKTMLEPSYKIWAFTYRPSCVRRVDRHFQELPQKVTTAIIEVAFDIVGVYLPVELSYGSIDREHEFIKTLGEGAELEVQRRRDERITVFKNAVEALGKAMNNLRTYHFDIAKGALFNCNKPSYCEHHLKWGQVRKFREQHQRMETSPEEVIRFATGQRNEHDVSAAGRSVKDSTH | not soluble
17 | GIDPFTMAKKDGAIEVEGRVVEPLPNAMFRIELENGHKVLAHISGKMRQHYIRILPEDRVVVELSPYDLSRGRIVYRYK | soluble
18 | MTIDTDLDRTPAASSENPVEARRTQARAWFEGLRDRICAEIETLEREAPAELFPGEPATFTYKPWQRKTGAGGGVGGFLSNGRLFEKIGIHTSSANGKLTPEMAKNVPGDGSLDYVSTSISLIMHPRSPRVPTVHMNTRFLSTSQGWFGGGADLTPMLPEQRSQDAEDAVIFHTAMKHACDAHDPAYYDKFKPWADTYFFLPHRGVARGVGGIFFDYLNSGDFDRDFAFTRAVGSALLDVYPKIVRKRMIEPWTDAERAQQLACRGLYVEFNLLYDRGTMFGLQTGGNTETIMSSMPPLVSWSMAGDPLEHHHHHH | not soluble
19 | MTMTPVSDPIPIGNQEDKENIEDAENTMNISPACDRILVDHQYTRDVVITGKCSSLTYKKA | not soluble
20 | MTEQTSPESLTDGAHSKTDSAWPLACNLEPRLVSRGRWQTTQWMLHGFSLTPEAQSQYVATLHLYRDERTDYRFNLSSQAPKLFLVAEDPIEDQPLKVVQLTASQAVASRYMDSDYLVLSADMPLPVQALMEAYIGRHGELLEIRRKKREGAGRSCGN | not soluble
